Details in all cases: both partners purified
The target of experiment [1] is T1, Wdr26 (102–641) (mouse, UniProt Q8C6G8 102-641).
T1 construct: Wdr26, mouse, residues 102-641; also called dimeric Wdr26; (near) full-length Wdr26; source: E. coli BL21 CodonPlus (DE3) RIL, purified as described previously (van gen Hassend et al., 2023)
T1 sequence (looked up): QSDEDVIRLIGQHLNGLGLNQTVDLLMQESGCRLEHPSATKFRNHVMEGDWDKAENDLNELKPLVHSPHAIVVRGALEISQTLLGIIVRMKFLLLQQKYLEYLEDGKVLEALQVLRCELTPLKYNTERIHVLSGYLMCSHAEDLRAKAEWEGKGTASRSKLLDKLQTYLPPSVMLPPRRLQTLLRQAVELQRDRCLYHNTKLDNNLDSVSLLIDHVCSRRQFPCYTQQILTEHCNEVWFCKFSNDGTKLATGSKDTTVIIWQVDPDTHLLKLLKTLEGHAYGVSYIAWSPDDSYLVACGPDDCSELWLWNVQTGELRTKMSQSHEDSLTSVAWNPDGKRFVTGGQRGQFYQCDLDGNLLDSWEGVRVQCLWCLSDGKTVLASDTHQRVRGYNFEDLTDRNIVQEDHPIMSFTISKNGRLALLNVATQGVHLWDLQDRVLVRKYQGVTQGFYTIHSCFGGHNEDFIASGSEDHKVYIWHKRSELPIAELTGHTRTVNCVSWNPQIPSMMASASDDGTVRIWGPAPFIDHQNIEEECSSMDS
Put plainly: ITC; Twa1_52 CTLH-CRA (192 μM, syringe) titrated into muskelin (1–735) or Wdr26 (102–641) (19 μM, cell); 25°C; 20 mM tricine pH 8.0, 500 mM NaCl, 1 mM TCEP; one-site model.

The target of experiment [2] is T2, muskelin (1–735) (rat, UniProt Q99PV3 1-735).
T2 construct: muskelin, rat, residues 1-735; also called full-length muskelin; tetrameric muskelin; source: E. coli BL21 CodonPlus (DE3) RIL, purified as described previously (van gen Hassend et al., 2023)
T2 sequence (Q99PV3 whole entry, the tested form may be a part): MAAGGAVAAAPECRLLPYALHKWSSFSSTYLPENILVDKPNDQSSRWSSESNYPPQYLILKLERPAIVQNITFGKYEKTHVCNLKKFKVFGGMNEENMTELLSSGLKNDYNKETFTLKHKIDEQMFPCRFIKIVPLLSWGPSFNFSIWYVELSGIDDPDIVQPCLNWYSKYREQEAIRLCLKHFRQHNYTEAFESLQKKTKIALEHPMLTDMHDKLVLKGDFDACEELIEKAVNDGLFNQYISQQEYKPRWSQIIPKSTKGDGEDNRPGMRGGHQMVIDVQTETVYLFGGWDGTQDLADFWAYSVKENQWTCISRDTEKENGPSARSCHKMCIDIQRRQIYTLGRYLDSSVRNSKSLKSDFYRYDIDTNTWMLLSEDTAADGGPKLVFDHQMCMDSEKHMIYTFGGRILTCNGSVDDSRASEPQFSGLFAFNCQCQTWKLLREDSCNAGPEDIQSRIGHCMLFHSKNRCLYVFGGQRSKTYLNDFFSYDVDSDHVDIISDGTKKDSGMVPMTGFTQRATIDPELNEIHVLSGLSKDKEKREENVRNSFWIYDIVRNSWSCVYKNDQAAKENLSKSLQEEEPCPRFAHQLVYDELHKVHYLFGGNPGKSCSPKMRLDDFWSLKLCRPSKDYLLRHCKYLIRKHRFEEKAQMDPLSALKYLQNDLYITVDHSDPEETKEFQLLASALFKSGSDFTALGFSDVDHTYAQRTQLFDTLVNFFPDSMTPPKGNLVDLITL
The experiment is described as above.

Experiment [3] concerns the target T3, Wdr26 CTLH-CRA domain (136-278) (mouse, UniProt Q8C6G8 136-278).
T3 construct: Wdr26, mouse, residues 136-278; Could not be purified on its own; source: E. coli BL21 CodonPlus (DE3) RIL, co-expressed with tagless Twa1_52, complex purified (Ni-IDA, 3C cleavage, SEC); not shown: His6, N-terminal, cleaved
T3 sequence (looked up): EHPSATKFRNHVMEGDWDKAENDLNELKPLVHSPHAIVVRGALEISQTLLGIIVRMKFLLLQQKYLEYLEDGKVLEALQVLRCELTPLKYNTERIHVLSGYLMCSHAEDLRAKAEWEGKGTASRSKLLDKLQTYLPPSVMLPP
As to the kind of experiment: SEC-MALS; CTLH-CRA domain complexes co-expressed in E. coli and purified as complexes; Superdex 75 10/300 GL; 20 mM tricine pH 8.0, 500 mM NaCl, 1 mM TCEP. In general terms: Size exclusion chromatography separates by hydrodynamic size, large species first.

Experiment [4] concerns the target muskelin CTLH-CRA domain co-expressed with Twa1_52 (rat). The description is as above.
Experiment [5] addresses T4, muskelin CTLH-CRA domain (205–735 Δ248–625) (rat, UniProt Q99PV3 205-735, Δ248–625).
T4 construct: muskelin, rat, fusion of the CTLH motif and the C-terminus (CRA^N-like): residues 205-735 with 248-625 deleted; also called muskelin wt; CTLH-Ct construct; source: E. coli BL21 CodonPlus (DE3) RIL, purified as described previously (van gen Hassend et al., 2023)
Put plainly: ITC; muskelin CTLH-CRA (160 μM, syringe) titrated into RanBP10 or Twa1 CTLH-CRA variants (16 μM, cell); 25°C; 20 mM tricine pH 8.0, 500 mM NaCl, 1 mM TCEP; one-site model.

muskelin CTLH-CRA domain co-expressed with Twa1_52 (rat), sequence (chain, as listed by the source): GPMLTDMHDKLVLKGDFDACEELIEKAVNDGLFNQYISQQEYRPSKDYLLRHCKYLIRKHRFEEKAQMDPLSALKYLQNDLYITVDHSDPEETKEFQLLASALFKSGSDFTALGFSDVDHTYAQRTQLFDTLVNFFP
T4 sequence (Q99PV3 other isoform, or with tags, fused parts or gaps Δ248–625 | Δ248–625 | mutant): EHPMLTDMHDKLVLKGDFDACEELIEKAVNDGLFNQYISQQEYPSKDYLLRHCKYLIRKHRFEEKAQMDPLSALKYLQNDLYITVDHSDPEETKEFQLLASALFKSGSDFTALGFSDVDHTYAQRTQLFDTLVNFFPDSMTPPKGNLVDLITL

B1: Twa1_52 mutant (A125G, Q126R, Δ127T, L140K, E144K, L147F, F152Y, F160V), CTLH-CRA domain (domain or fragment, mouse, UniProt Q9D7M1 58-190, looked up)
chain: SVDLETLDERIKIREMILKGQIQEAIALINSLHPELLDTNRYLYFHLQQQHLIELIRQRETEAALEFGRQLAEQGEESRECKTEMKRTFALLAYDSPEESPVGDLLHMMQRQKVWSEVNQAVLDYENRESTP
notes: Twa1, mouse, CTLH-CRA domain 58-190 with eight changes; source: E. coli BL21 CodonPlus (DE3) RIL, purified (Ni-IDA, 3C cleavage, SEC); also tagless, co-expressed with muskelin or Wdr26 CTLH-CRA domain; not shown: His6, N-terminal, cleaved
For orientation: Kd means the free concentration of one partner at which half of the binding sites on the other are occupied at equilibrium, for simple one-to-one binding. What is called stoichiometry N is the number of molecules, sites or subunits per partner or assembly. Regarding B1, the Kd in experiment [1] is 0.0159 µM; in experiment [2] it was 0.0179 µM; in experiment [5] it was 0.146 µM. Also, the “stoichiometry N” value in experiment [3] and in experiment [4] was 1 in each case.

The values are drawn from publication PMC13061415, “A structural code for assembly specificity in GID/CTLH-type E3 ligases” (eLife, 2026).
